# Laboratory results taken from IntAct's records for PubMed 22493017.
# B1: Biopolymer transport protein ExbD (Escherichia coli (strain K12)), P0ABV2 (parent)
# chain: MAMHLNENLDDNGEMHDINVTPFIDVMLVLLIIFMVAAPLATVDVKVNLPASTSTPQPRPEKPVYLSVKADNSMFIGNDPVTDETMITALNALTEGKKDTTIFFRADKTVDYETLMKVMDTLHQAGYLKIGLVGEETAKAK
# B2: Protein TonB (Escherichia coli (strain K12)), P02929 (parent)
# chain: MTLDLPRRFPWPTLLSVCIHGAVVAGLLYTSVHQVIELPAPAQPISVTMVTPADLEPPQAVQPPPEPVVEPEPEPEPIPEPPKEAPVVIEKPKPKPKPKPKPVKKVQEQPKRDVKPVESRPASPFENTAPARLTSSTATAATSKPVTSVASGPRALSRNQPQYPARAQALRIEGQVKVKFDVTPDGRVDNVQILSAKPANMFEREVKNAMRRWRYEPGKPGSGIVVNILFKINGTTEIQ
# partner: B1 chain
# Variants of: B1
# Conditions: with tonb_ecoli tonB, P02929
row,effect of a mutation on the interaction,Variant
1,increasing interaction,MAMHLNENLDDNGEMHDINVTPFIDVMLVLLIIFMVAAPLATVDVKVNLPASTSTPQPRPEKPVYLSVKADNSMFIGNDPVTDETMITALNCLTEGKKDTTIFFRADKTVDYETLMKVMDTLHQAGYLKIGLVGEETAKAK [A92C]
2,decreasing interaction,MAMHLNENLDDNGEMHDINVTPFINVMLVLLIIFMVAAPLATVDVKVNLPASTSTPQPRPEKPVYLSVKADNSMFIGNDPVTDETMITALNALTEGKKDTTIFFRADKTVDYETLMKVMDTLHQAGYLKIGLVGEETAKAK [D25N]
3,increasing interaction,MAMHLNENLDDNGEMHDINVTPFIDVMLVLLIIFMVAAPLATVDVKVNLPASTSTPQPRPEKPVYLSVKADNSMFIGNDPVTDETMITALNALTEGCKDTTIFFRADKTVDYETLMKVMDTLHQAGYLKIGLVGEETAKAK [K97C]
4,increasing interaction,MAMHLNENLDDNGEMHDINVTPFIDVMLVLLIIFMVAAPLATVDVKVNLPASTSTPQPRPEKPVYLSVKADNSMFIGNDPVTDETMITALNALTEGKKDTTIFFRADKCVDYETLMKVMDTLHQAGYLKIGLVGEETAKAK [T109C]

# Variants of: B2
# Conditions: with exbd_ecoli exbD, P0ABV2
row,effect of a mutation on the interaction,Variant
1,increasing interaction,R166C
2,increasing interaction,G152C
3,increasing interaction,Q168C
4,increasing interaction,R204C
5,increasing interaction,N200C
6,increasing interaction,P164C
7,increasing interaction,F202C
8,increasing interaction,A150C
9,increasing interaction,L170C
10,increasing interaction,R212C
